Measured values reported in patent publication US20120093810A1 (EVEC, published 2012).

B1: EV2038 CDR-H3 variant P125A (antibody, V domains shown)
VH: QVQLQQWGAGLLKPSETLSLTCAVYGGSFSGYYWGWIRQPPGKGLEWIGEINHSGSANSNPSLKSRVTMSVDTSKNQFSLKVSSVTAADTAVYFCARVTRDLEWIAGDYYMDVWGKGTTVTVSS
VL: QSVLTQPPSASGTPGQRVSISCSGSLSNIGTNYVYWYQQLPGTAPKLLIFKNNQRPSGVPDRFSGSKSGTSASLAISGLRSEDEADYYCAAWDDSLNGYVFGTGTKVTVLG
notes: original EV2038 L-chain
B2: EV2038 CDR-H3 variant P125M (antibody, V domains shown)
VH: QVQLQQWGAGLLKPSETLSLTCAVYGGSFSGYYWGWIRQPPGKGLEWIGEINHSGSANSNPSLKSRVTMSVDTSKNQFSLKVSSVTAADTAVYFCARVTRDLEWIMGDYYMDVWGKGTTVTVSS
VL: QSVLTQPPSASGTPGQRVSISCSGSLSNIGTNYVYWYQQLPGTAPKLLIFKNNQRPSGVPDRFSGSKSGTSASLAISGLRSEDEADYYCAAWDDSLNGYVFGTGTKVTVLG
notes: original EV2038 L-chain
B3: EV2038 CDR-H3 variant P125F (antibody, V domains shown)
VH: QVQLQQWGAGLLKPSETLSLTCAVYGGSFSGYYWGWIRQPPGKGLEWIGEINHSGSANSNPSLKSRVTMSVDTSKNQFSLKVSSVTAADTAVYFCARVTRDLEWIFGDYYMDVWGKGTTVTVSS
VL: QSVLTQPPSASGTPGQRVSISCSGSLSNIGTNYVYWYQQLPGTAPKLLIFKNNQRPSGVPDRFSGSKSGTSASLAISGLRSEDEADYYCAAWDDSLNGYVFGTGTKVTVLG
notes: original EV2038 L-chain
B4: EV2038 CDR-H3 variant P125E (antibody, V domains shown)
VH: QVQLQQWGAGLLKPSETLSLTCAVYGGSFSGYYWGWIRQPPGKGLEWIGEINHSGSANSNPSLKSRVTMSVDTSKNQFSLKVSSVTAADTAVYFCARVTRDLEWIEGDYYMDVWGKGTTVTVSS
VL: QSVLTQPPSASGTPGQRVSISCSGSLSNIGTNYVYWYQQLPGTAPKLLIFKNNQRPSGVPDRFSGSKSGTSASLAISGLRSEDEADYYCAAWDDSLNGYVFGTGTKVTVLG
notes: original EV2038 L-chain
B5: EV2038 CDR-H3 variant P125K (antibody, V domains shown)
VH: QVQLQQWGAGLLKPSETLSLTCAVYGGSFSGYYWGWIRQPPGKGLEWIGEINHSGSANSNPSLKSRVTMSVDTSKNQFSLKVSSVTAADTAVYFCARVTRDLEWIKGDYYMDVWGKGTTVTVSS
VL: QSVLTQPPSASGTPGQRVSISCSGSLSNIGTNYVYWYQQLPGTAPKLLIFKNNQRPSGVPDRFSGSKSGTSASLAISGLRSEDEADYYCAAWDDSLNGYVFGTGTKVTVLG
notes: original EV2038 L-chain
B6: EV2038 CDR-H3 variant P125Q (antibody, V domains shown)
VH: QVQLQQWGAGLLKPSETLSLTCAVYGGSFSGYYWGWIRQPPGKGLEWIGEINHSGSANSNPSLKSRVTMSVDTSKNQFSLKVSSVTAADTAVYFCARVTRDLEWIQGDYYMDVWGKGTTVTVSS
VL: QSVLTQPPSASGTPGQRVSISCSGSLSNIGTNYVYWYQQLPGTAPKLLIFKNNQRPSGVPDRFSGSKSGTSASLAISGLRSEDEADYYCAAWDDSLNGYVFGTGTKVTVLG
notes: original EV2038 L-chain
B7: EV2038 CDR-H3 variant P125C (antibody, V domains shown)
VH: QVQLQQWGAGLLKPSETLSLTCAVYGGSFSGYYWGWIRQPPGKGLEWIGEINHSGSANSNPSLKSRVTMSVDTSKNQFSLKVSSVTAADTAVYFCARVTRDLEWICGDYYMDVWGKGTTVTVSS
VL: QSVLTQPPSASGTPGQRVSISCSGSLSNIGTNYVYWYQQLPGTAPKLLIFKNNQRPSGVPDRFSGSKSGTSASLAISGLRSEDEADYYCAAWDDSLNGYVFGTGTKVTVLG
notes: original EV2038 L-chain
B8: EV2038 CDR-H3 variant P125S (antibody, V domains shown)
VH: QVQLQQWGAGLLKPSETLSLTCAVYGGSFSGYYWGWIRQPPGKGLEWIGEINHSGSANSNPSLKSRVTMSVDTSKNQFSLKVSSVTAADTAVYFCARVTRDLEWISGDYYMDVWGKGTTVTVSS
VL: QSVLTQPPSASGTPGQRVSISCSGSLSNIGTNYVYWYQQLPGTAPKLLIFKNNQRPSGVPDRFSGSKSGTSASLAISGLRSEDEADYYCAAWDDSLNGYVFGTGTKVTVLG
notes: original EV2038 L-chain
B9: EV2038 CDR-H3 variant P125G (antibody, V domains shown)
VH: QVQLQQWGAGLLKPSETLSLTCAVYGGSFSGYYWGWIRQPPGKGLEWIGEINHSGSANSNPSLKSRVTMSVDTSKNQFSLKVSSVTAADTAVYFCARVTRDLEWIGGDYYMDVWGKGTTVTVSS
VL: QSVLTQPPSASGTPGQRVSISCSGSLSNIGTNYVYWYQQLPGTAPKLLIFKNNQRPSGVPDRFSGSKSGTSASLAISGLRSEDEADYYCAAWDDSLNGYVFGTGTKVTVLG
notes: original EV2038 L-chain
B10: EV2038 CDR-H3 variant P125T (antibody, V domains shown)
VH: QVQLQQWGAGLLKPSETLSLTCAVYGGSFSGYYWGWIRQPPGKGLEWIGEINHSGSANSNPSLKSRVTMSVDTSKNQFSLKVSSVTAADTAVYFCARVTRDLEWITGDYYMDVWGKGTTVTVSS
VL: QSVLTQPPSASGTPGQRVSISCSGSLSNIGTNYVYWYQQLPGTAPKLLIFKNNQRPSGVPDRFSGSKSGTSASLAISGLRSEDEADYYCAAWDDSLNGYVFGTGTKVTVLG
notes: original EV2038 L-chain
B11: EV2038 CDR-H3 variant P125H (antibody, V domains shown)
VH: QVQLQQWGAGLLKPSETLSLTCAVYGGSFSGYYWGWIRQPPGKGLEWIGEINHSGSANSNPSLKSRVTMSVDTSKNQFSLKVSSVTAADTAVYFCARVTRDLEWIHGDYYMDVWGKGTTVTVSS
VL: QSVLTQPPSASGTPGQRVSISCSGSLSNIGTNYVYWYQQLPGTAPKLLIFKNNQRPSGVPDRFSGSKSGTSASLAISGLRSEDEADYYCAAWDDSLNGYVFGTGTKVTVLG
notes: original EV2038 L-chain
B12: EV2038 CDR-H3 variant P125W (antibody, V domains shown)
VH: QVQLQQWGAGLLKPSETLSLTCAVYGGSFSGYYWGWIRQPPGKGLEWIGEINHSGSANSNPSLKSRVTMSVDTSKNQFSLKVSSVTAADTAVYFCARVTRDLEWIWGDYYMDVWGKGTTVTVSS
VL: QSVLTQPPSASGTPGQRVSISCSGSLSNIGTNYVYWYQQLPGTAPKLLIFKNNQRPSGVPDRFSGSKSGTSASLAISGLRSEDEADYYCAAWDDSLNGYVFGTGTKVTVLG
notes: original EV2038 L-chain
B13: EV2038 CDR-H3 variant P125R (antibody, V domains shown)
VH: QVQLQQWGAGLLKPSETLSLTCAVYGGSFSGYYWGWIRQPPGKGLEWIGEINHSGSANSNPSLKSRVTMSVDTSKNQFSLKVSSVTAADTAVYFCARVTRDLEWIRGDYYMDVWGKGTTVTVSS
VL: QSVLTQPPSASGTPGQRVSISCSGSLSNIGTNYVYWYQQLPGTAPKLLIFKNNQRPSGVPDRFSGSKSGTSASLAISGLRSEDEADYYCAAWDDSLNGYVFGTGTKVTVLG
notes: original EV2038 L-chain
B14: EV2038 CDR-H3 variant P125N (antibody, V domains shown)
VH: QVQLQQWGAGLLKPSETLSLTCAVYGGSFSGYYWGWIRQPPGKGLEWIGEINHSGSANSNPSLKSRVTMSVDTSKNQFSLKVSSVTAADTAVYFCARVTRDLEWINGDYYMDVWGKGTTVTVSS
VL: QSVLTQPPSASGTPGQRVSISCSGSLSNIGTNYVYWYQQLPGTAPKLLIFKNNQRPSGVPDRFSGSKSGTSASLAISGLRSEDEADYYCAAWDDSLNGYVFGTGTKVTVLG
notes: original EV2038 L-chain
B15: EV2038 CDR-H3 variant P125L (antibody, V domains shown)
VH: QVQLQQWGAGLLKPSETLSLTCAVYGGSFSGYYWGWIRQPPGKGLEWIGEINHSGSANSNPSLKSRVTMSVDTSKNQFSLKVSSVTAADTAVYFCARVTRDLEWILGDYYMDVWGKGTTVTVSS
VL: QSVLTQPPSASGTPGQRVSISCSGSLSNIGTNYVYWYQQLPGTAPKLLIFKNNQRPSGVPDRFSGSKSGTSASLAISGLRSEDEADYYCAAWDDSLNGYVFGTGTKVTVLG
notes: original EV2038 L-chain
B16: EV2038 CDR-H3 variant P125D (antibody, V domains shown)
VH: QVQLQQWGAGLLKPSETLSLTCAVYGGSFSGYYWGWIRQPPGKGLEWIGEINHSGSANSNPSLKSRVTMSVDTSKNQFSLKVSSVTAADTAVYFCARVTRDLEWIDGDYYMDVWGKGTTVTVSS
VL: QSVLTQPPSASGTPGQRVSISCSGSLSNIGTNYVYWYQQLPGTAPKLLIFKNNQRPSGVPDRFSGSKSGTSASLAISGLRSEDEADYYCAAWDDSLNGYVFGTGTKVTVLG
notes: original EV2038 L-chain
B17: EV2038 CDR-H3 variant P125I (antibody, V domains shown)
VH: QVQLQQWGAGLLKPSETLSLTCAVYGGSFSGYYWGWIRQPPGKGLEWIGEINHSGSANSNPSLKSRVTMSVDTSKNQFSLKVSSVTAADTAVYFCARVTRDLEWIIGDYYMDVWGKGTTVTVSS
VL: QSVLTQPPSASGTPGQRVSISCSGSLSNIGTNYVYWYQQLPGTAPKLLIFKNNQRPSGVPDRFSGSKSGTSASLAISGLRSEDEADYYCAAWDDSLNGYVFGTGTKVTVLG
notes: original EV2038 L-chain
B18: EV2038 CDR-H3 variant P125Y (antibody, V domains shown)
VH: QVQLQQWGAGLLKPSETLSLTCAVYGGSFSGYYWGWIRQPPGKGLEWIGEINHSGSANSNPSLKSRVTMSVDTSKNQFSLKVSSVTAADTAVYFCARVTRDLEWIYGDYYMDVWGKGTTVTVSS
VL: QSVLTQPPSASGTPGQRVSISCSGSLSNIGTNYVYWYQQLPGTAPKLLIFKNNQRPSGVPDRFSGSKSGTSASLAISGLRSEDEADYYCAAWDDSLNGYVFGTGTKVTVLG
notes: original EV2038 L-chain
B19: EV2038 CDR-H3 variant P125V (antibody, V domains shown)
VH: QVQLQQWGAGLLKPSETLSLTCAVYGGSFSGYYWGWIRQPPGKGLEWIGEINHSGSANSNPSLKSRVTMSVDTSKNQFSLKVSSVTAADTAVYFCARVTRDLEWIVGDYYMDVWGKGTTVTVSS
VL: QSVLTQPPSASGTPGQRVSISCSGSLSNIGTNYVYWYQQLPGTAPKLLIFKNNQRPSGVPDRFSGSKSGTSASLAISGLRSEDEADYYCAAWDDSLNGYVFGTGTKVTVLG
notes: original EV2038 L-chain

Target: T1, GST-fused HCMV-AD1 (AD1 region of HCMV glycoprotein gB) (human cytomegalovirus, AD169 strain, UniProt F5HB53 485-651)
T1 construct: also called solid-phased AD1; AD1 antigen; not shown: glutathione S-transferase (GST) fusion partner
T1 sequence (F5HB53 485-651): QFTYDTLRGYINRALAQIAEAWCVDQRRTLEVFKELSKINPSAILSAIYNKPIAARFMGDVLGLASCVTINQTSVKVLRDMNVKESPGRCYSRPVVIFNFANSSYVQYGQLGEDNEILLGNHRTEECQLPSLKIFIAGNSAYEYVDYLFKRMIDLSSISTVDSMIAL
Assay: ELISA on solid-phased AD1 (5 µg/mL)

Binder | binding result
B1 | no binding (tested: 1 µg/mL, dilution series)
B2 | no binding (tested: 1 µg/mL, dilution series)
B3 | no binding (tested: 1 µg/mL, dilution series)
B4 | no binding (tested: 1 µg/mL, dilution series)
B5 | no binding (tested: 1 µg/mL, dilution series)
B6 | no binding (tested: 1 µg/mL, dilution series)
B7 | no binding (tested: 1 µg/mL, dilution series)
B8 | no binding (tested: 1 µg/mL, dilution series)
B9 | no binding (tested: 1 µg/mL, dilution series)
B10 | no binding (tested: 1 µg/mL, dilution series)
B11 | no binding (tested: 1 µg/mL, dilution series)
B12 | no binding (tested: 1 µg/mL, dilution series)
B13 | no binding (tested: 1 µg/mL, dilution series)
B14 | no binding (tested: 1 µg/mL, dilution series)
B15 | no binding (tested: 1 µg/mL, dilution series)
B16 | no binding (tested: 1 µg/mL, dilution series)
B17 | no binding (tested: 1 µg/mL, dilution series)
B18 | no binding (tested: 1 µg/mL, dilution series)
B19 | no binding (tested: 1 µg/mL, dilution series)
